Reference: paper PMC4558366 (Cell reports, 2015)

Biological target: T1, UHRF1_(647-687) (human, UniProt Q96T88-2 647-687)
T1 chain (looked up): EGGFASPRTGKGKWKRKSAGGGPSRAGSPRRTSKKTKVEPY
Test: ITC

fold reduction of binding affinity against wild type: 4 fold
B1: USP7 UBL1-2 E736A (domain or fragment)
chain: EAHLYMQVQIVAEDQFCGHQGNDMYDEEKVKYTVFKVLKNSSLAEFVQSLSQTMGFPQDQIRLWPMQARSNGTKRPAMLDNEADGNKTMIELSDNENPWTIFLETVDPELAASGATLPKFDKDHDVMLFLKMYDPKTRSLNYCGHIYTPISCKIRDLLPVMCDRAGFIQDTSLILYAEVKPNLTERIQDYDVSLDKALDELMDGDIIVFQKDDPENDNSELPTAKEYFRDLYH
